The target in the assay is T1, IgE-Fc protein having the amino acid sequence set forth in SEQ ID NO: 5 (murine, UniProt P06336 91-421, glycosylated (fully glycosylated IgE-Fc)).
T1 construct: Made in HEK293T cells; also called murine IgE-Fc; single domain IgE-Fc; not shown: TEV-His tag (detected with anti-His antibodies)
T1 sequence: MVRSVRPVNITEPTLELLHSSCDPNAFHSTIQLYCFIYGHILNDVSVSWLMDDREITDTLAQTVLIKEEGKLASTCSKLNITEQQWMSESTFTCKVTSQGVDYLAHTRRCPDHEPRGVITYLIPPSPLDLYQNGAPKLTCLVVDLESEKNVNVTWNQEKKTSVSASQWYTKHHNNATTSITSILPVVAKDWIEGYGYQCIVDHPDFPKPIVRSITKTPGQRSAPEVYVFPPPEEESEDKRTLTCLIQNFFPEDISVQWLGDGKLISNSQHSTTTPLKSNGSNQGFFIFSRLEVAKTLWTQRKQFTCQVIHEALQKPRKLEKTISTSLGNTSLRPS
The experiment in a line: flow cytometry on RBL-2H3 cells, 30 min, APC anti-His detection. The procedure: Cells of the histamine-releasing rat cell line RBL-2H3 and human peripheral blood mononuclear cells (PBMCs) were treated with the IgE-Fc protein (purified) having the amino acid sequence set forth in SEQ ID NO: 5 and the IgG-Fc-IgE-Fc fusion protein (unpurified, obtained from cell culture supernatant) having the amino acid sequence set forth in SEQ ID NO: 12 for 30 min. Cells were then thoroughly washed and stained with allophycocyanin (APC) conjugated anti-His antibodies and subsequently analyzed by flow cytometry. Anti-His antibodies detected Fc proteins that were bound to the cell surface due to their specific interaction with Fc epsilon Receptor I (FcεRI) and Fc gamma Receptor IIB (FcγRIIB), respectively. IgG-Fc-IgE-Fc proteins were able to bind to both the rat basophil cell line RBL-2H3 as well as to human PBMCs (comprised about 50-70% […], 10-25% T cells, and 20-30% of cells expressing FcgRIIB), even in very low concentrations in which the IgG-Fc-IgE-Fc fusion protein was present (approximately 0.05 mg/mL) in cell culture supernatants compared to purified and highly concentrated IgE-Fc proteins (approximately 1 mg/mL).

B1: Fc epsilon Receptor I (FcεRI) on cells of the rat basophil cell line RBL-2H3 (receptor, UniProt P12371 24-245, looked up)
chain: ATQKSVVSLDPPWIRILTGDKVTLICNGNNSSQMNSTKWIHNDSISNVKSSHWVIVSATIQDSGKYICQKQGFYKSKPVYLNVMQEWLLLQSSADVVLDNGSFDIRCRSWKKWKVHKVIYYKDDIAFKYSYDSNNISIRKATFNDSGSYHCTGYLNKVECKSDKFSIAVVKDYTIEYRWLQLIFPSLAVILFAVDTGLWFSTHKQFESILKIQKTGKGKKKG
notes: whole, on cells; the receptor on cells also has beta and gamma chains; also called FceRI; Fc epsilon receptors
Consider B1, for which the binding result is reported as “binds”.
